In publication PMC11645210:

Tests used:
[1] = molecular target: SARS-CoV-2 XBB.1.5 + L455S RBD (SARS-CoV-2) (UniProt P0DTC2); test: SPR
[2] = molecular target: SARS-CoV-2 XBB.1.5 + L455F RBD (SARS-CoV-2) (UniProt P0DTC2); test: SPR
[3] = molecular target: SARS-CoV-2 BA.2.86 Hexapro S ectodomain (SARS-CoV-2) (UniProt P0DTC2); test: cryo-EM structure

| Substance | Kd [1] | koff [1] | kon [1] | Kd [2] | koff [2] | kon [2] | stoichiometry N [3] |
| --- | --- | --- | --- | --- | --- | --- | --- |
| VIR-7229 Fab fragment | 0.199 nM | 0.000106 s⁻¹ | 543000 M⁻¹ s⁻¹ | 0.193 nM | 0.000113 s⁻¹ | 604000 M⁻¹ s⁻¹ |  |
| SARS-CoV-2 BA.2.86 Hexapro S ectodomain (from UniProt P0DTC2 14-1204) (domain or fragment) |  |  |  |  |  |  | 3 |
